# Measurements from the supplement of paper PMC10126150.
# ± gives the standard deviation of the averaged measurements.
# System: ATP
# Assay: switch fluorescence ratio, 500 uM ATP over buffer (Cy3 cluster intensity, sum of 5 cycles each) (fold (ratio)); higher = stronger signal-on switching upon ATP binding; sequences stand for … in TCGTCGGCAGCGTCAGATGTGTATAAGAGACAGTTTTTTTTTTTTTTTTTTTTTTTTT…TC
# Settings: aptamer strand: ATP DNA aptamer (quencher-CACCTGGGGGAGTATTGCGGAGGAAGG + anchor), 100 nM annealed; ATP concentration: 500 uM
# Outline: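 Five buffer/ATP imaging cycles were run on Cy3-labelled switching-strand clusters on a modified Illumina MiSeq flow-cell, with NaOH stripping and re-annealing between cycles. In each cycle, clusters annealed to 100 nM quencher-labelled ATP aptamer were imaged in selection buffer, then after 15 min with 500 uM ATP at 22 °C. Per cluster, the fluorescence ratio is summed target-cycle over summed buffer-cycle Cy3 intensity, averaged per switch-domain sequence. Only clusters within 100-1000 RFU were kept.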
# 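Note: ATP exposure 15 min at 22 °C before imaging.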
row,Sequence,switch fluorescence ratio
1,TATCGTTTAA,0.987 ± 0.032
2,TATCTAAATC,0.9967 ± 0.0063
3,TATCTAATGC,1 ± 0.085
4,TATCTACAAT,1.01 ± 0.02
5,TATCTACGGG,1.036 ± 0.0013
6,TATCTTAGGC,1.01 ± 0.027
7,TATCTTTAAC,1.03 ± 0.024
8,TATCTTTAGT,0.989 ± 0.015
9,TATCTTTCTT,1.06 ± 0.019
10,TATCTTTTTC,1.04 ± 0.084
11,TATGAAAGGG,1.13 ± 0.16
12,TATGAAGGGA,0.99 ± 0.021
13,TATGAATCAG,0.998 ± 0.019
14,TATGAGGTTC,0.983 ± 0.1
15,TATGATCTTT,1.029 ± 0.0052
16,TATGATGCAT,0.991 ± 0.028
17,TATGATGTCG,1.01 ± 0.027
18,TATGATTTAA,1.01 ± 0.016
19,TATGCAGTCA,1.01 ± 0.029
20,TATGCCTTCG,1.09 ± 0.05
21,TATGCCTTTG,0.987 ± 0.033
22,TATGCGGACA,1.04 ± 0.027
23,TATGCGGTCC,1.02 ± 0.019

row,Sequence,switch fluorescence ratio
1,TATGCTAAAA,0.965 ± 0.038
2,TATGCTGCTG,1.01 ± 0.036
3,TATGCTTATA,0.98 ± 0.014
4,TATGGAAGCA,0.994 ± 0.014
5,TATGGACATT,1.03 ± 0.011
6,TATGGAGCGT,1.04 ± 0.018
7,TATGGAGGCT,1.07 ± 0.015
8,TATGGATAGT,0.998 ± 0.017
9,TATGGATTGC,0.988 ± 0.032
10,TATGGCATCT,1 ± 0.051
11,TATGGCCCGG,1.02 ± 0.0014
12,TATGGCGGTC,0.92422 ± 0.00078
13,TATGGCGGTG,0.989 ± 0.021
14,TATGGGAGTT,1 ± 0.01
15,TATGGGCAGT,1.007 ± 0.0017
16,TATGGGCGTC,0.999 ± 0.011
17,TATGGGGCAG,0.99 ± 0.0093
18,TATGGGGGA,1.01 ± 0.069
19,TATGGGGGCT,1.04 ± 0.012
20,TATGGGTGCT,1.06 ± 0.046
21,TATGGGTTAA,1.01 ± 0.022
22,TATGGGTTGG,1.02 ± 0.04
23,TATGGTCGCT,1.03 ± 0.041

row,Sequence,switch fluorescence ratio
1,TATGGTGCG,0.984 ± 0.011
2,TATGGTGCTT,1.01 ± 0.032
3,TATGGTGTGC,1.02 ± 0.021
4,TATGGTTTAC,1 ± 0.017
5,TATGGTTTTT,0.996 ± 0.015
6,TATGTACACT,1.06 ± 0.053
7,TATGTAGGGG,1.09 ± 0.14
8,TATGTAGGTA,0.994 ± 0.047
9,TATGTATCGC,1.13 ± 0.15
10,TATGTCAGCT,1.01 ± 0.032
11,TATGTCTACA,0.9859 ± 0.0075
12,TATGTGAACT,0.9986 ± 0.0019
13,TATGTGAAGG,0.995 ± 0.015
14,TATGTGCAGG,0.995 ± 0.015
15,TATGTGCTGT,0.983 ± 0.011
16,TATGTGGACA,0.9964 ± 0.0047
17,TATGTGGAGG,0.97262 ± 0.00028
18,TATGTGGGCT,0.987 ± 0.021
19,TATGTGGGTC,1.02 ± 0.035
20,TATGTGTAAC,0.978 ± 0.02
21,TATGTGTGTT,0.9873 ± 0.0062
22,TATGTTAAC,1.02 ± 0.012
23,TATGTTAATG,0.999 ± 0.016

row,Sequence,switch fluorescence ratio
1,TATGTTAGTG,1.01 ± 0.042
2,TATGTTATGT,1.01 ± 0.052
3,TATGTTATTA,0.984 ± 0.039
4,TATGTTTGGG,0.986 ± 0.034
5,TATGTTTTGT,1.02 ± 0.041
6,TATGTTTTTT,0.997 ± 0.031
7,TATTAAAAAT,1.03 ± 0.047
8,TATTAAACTC,1.02 ± 0.017
9,TATTAACGTT,1.015 ± 0.0039
10,TATTAAGAGG,0.98 ± 0.018
11,TATTAAGCGA,1.05 ± 0.037
12,TATTAAGGGT,0.979 ± 0.029
13,TATTAAGGTT,0.978 ± 0.021
14,TATTAAGTGG,1.05 ± 0.071
15,TATTAATCGG,0.97 ± 0.056
16,TATTAATGAT,1.007 ± 0.01
17,TATTAATTC,0.972 ± 0.056
18,TATTAGAACT,1.017 ± 0.0064
19,TATTAGCTAT,0.998 ± 0.037
20,TATTAGGTA,1.01 ± 0.017
21,TATTAGTTTG,0.997 ± 0.024
22,TATTATATTT,1 ± 0.0046
23,TATTATGGGG,1.02 ± 0.034

row,Sequence,switch fluorescence ratio
1,TATTCAATTT,1 ± 0.021
2,TATTCAGGGT,1.01 ± 0.028
3,TATTCATGGT,1.025 ± 0.0057
4,TATTCCGTCC,1.1 ± 0.049
5,TATTCGATTC,1.04 ± 0.017
6,TATTCGGCTG,0.997 ± 0.029
7,TATTCTACCA,1.01 ± 0.011
8,TATTGAATGG,0.972 ± 0.03
9,TATTGAGGGA,1.017 ± 0.0031
10,TATTGATAAA,0.991 ± 0.058
11,TATTGATGGT,0.994 ± 0.019
12,TATTGCGATT,0.994 ± 0.018
13,TATTGGAGGT,0.981 ± 0.021
14,TATTGGGCTT,0.989 ± 0.018
15,TATTGGGGAA,0.978 ± 0.01
16,TATTGGGGGG,0.999 ± 0.025
17,TATTGGGTTC,0.965 ± 0.011
18,TATTGGTCAA,0.962 ± 0.017
19,TATTGGTGGG,0.9663 ± 0.008
20,TATTGTAGCT,1.01 ± 0.044
21,TATTGTTGGG,0.976 ± 0.03
22,TATTTAGGAA,0.9498 ± 0.0078
23,TATTTAGGGG,0.973 ± 0.022

row,Sequence,switch fluorescence ratio
1,TATTTAGTTT,1.01 ± 0.023
2,TATTTCCGGG,1.012 ± 0.0045
3,TATTTCTTTT,1.05 ± 0.11
4,TATTTGAATC,1.15 ± 0.24
5,TATTTGACG,1.02 ± 0.035
6,TATTTGAGCA,0.995 ± 0.026
7,TATTTGGAGG,0.992 ± 0.0044
8,TATTTGGCAT,1.036 ± 0.0029
9,TATTTGGGTC,0.98285 ± 0.00046
10,TATTTGGTTT,1 ± 0.017
11,TATTTGTACT,1 ± 0.013
12,TATTTGTGGG,0.9845 ± 0.0083
13,TATTTGTGTC,0.982 ± 0.057
14,TATTTGTGTG,0.998 ± 0.029
15,TATTTTAAAA,0.986 ± 0.022
16,TATTTTAGC,0.971 ± 0.034
17,TATTTTATTG,1.03 ± 0.02
18,TATTTTGAAG,1.07 ± 0.13
19,TATTTTGACG,0.9151 ± 0.0046
20,TATTTTGCCT,1.036 ± 0.01
21,TATTTTGCGT,1.002 ± 0.0024
22,TATTTTGGTT,0.999 ± 0.015
23,TATTTTGTAT,1 ± 0.019

row,Sequence,switch fluorescence ratio
1,TATTTTGTGG,0.984 ± 0.026
2,TATTTTTCTT,0.975 ± 0.041
3,TATTTTTGGA,0.981 ± 0.043
4,TATTTTTGGC,1.01 ± 0.018
5,TATTTTTGGG,0.99 ± 0.023
6,TATTTTTGTT,1.05 ± 0.074
7,TATTTTTTCT,0.994 ± 0.045
8,TATTTTTTTT,1.01 ± 0.043
9,TCAAAACTTG,1.01 ± 0.057
10,TCAAAAGTCG,1.03 ± 0.012
11,TCAAAAGTTG,1.04 ± 0.044
12,TCAAAATATT,1.006 ± 0.0065
13,TCAAAATGCT,1.09 ± 0.058
14,TCAAAATGTG,0.958 ± 0.015
15,TCAAACGCGT,1.01 ± 0.037
16,TCAAACGGGG,1 ± 0.045
17,TCAAACGTAG,0.9793 ± 0.0085
18,TCAAACTGTT,1.08 ± 0.025
19,TCAAAGAGGT,0.98204 ± 0.00058
